Earlier results on one substance are cited in paper PMC6238587.

This data set deals with PDI (Homo sapiens) (UniProt P07237). Description: surface plasmon resonance. The following applies: cited from earlier work. In general terms: SPR reads the build-up and loss of mass on a sensor chip optically.
Chain of PDI (Homo sapiens) (P07237 18-508): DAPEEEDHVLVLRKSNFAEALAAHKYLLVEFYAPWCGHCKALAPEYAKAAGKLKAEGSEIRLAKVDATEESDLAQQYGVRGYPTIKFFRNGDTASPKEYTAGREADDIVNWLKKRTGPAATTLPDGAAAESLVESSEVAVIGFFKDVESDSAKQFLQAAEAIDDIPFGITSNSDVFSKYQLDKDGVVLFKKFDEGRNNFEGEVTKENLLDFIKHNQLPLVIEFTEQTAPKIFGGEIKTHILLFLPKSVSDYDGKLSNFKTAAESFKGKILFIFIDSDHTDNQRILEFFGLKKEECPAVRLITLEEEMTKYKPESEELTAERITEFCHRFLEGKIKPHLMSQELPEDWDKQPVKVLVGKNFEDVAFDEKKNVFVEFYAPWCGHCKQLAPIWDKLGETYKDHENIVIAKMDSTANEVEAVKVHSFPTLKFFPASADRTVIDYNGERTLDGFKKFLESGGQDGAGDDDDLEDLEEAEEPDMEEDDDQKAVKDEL

A word on the Kd: it is the free concentration of one partner at which half of the binding sites on the other are occupied at equilibrium, for simple one-to-one binding. Take Ero1α (from UniProt Q96HE7): the Kd was 2100 nM.
